Data taken from patent US20160367623A1, “AGONISTS OF GUANYLATE CYCLASE USEFUL FOR THE TREATMENT OF GASTROINTESTINAL DISORDERS, INFLAMMATION, CANCER AND OTHER DISORDERS” (priority 2015, published 2016).
Bridge positions count the residues as written; N and C are the ends. Ends that are not written are not given here.

Tested on: patients with chronic idiopathic constipation (CIC)
Test: Second phase 3 CIC trial: treatment emergent adverse events, safety

Substance: Asn^1-Asp^2-Glu^3-Cys^4-Glu^5-Leu^6-Cys^7-Val^8-Asn^9-Val^10-Ala^11-Cys^12-Thr^13-Gly^14-Cys^15-Leu^16 (NDECELCVNVACTGCL; disulfide 4-12, 7-15) [Plecanatide]
- Infections and infestations, Severe: patients N (3 mg): 0
- Infections and infestations: events E (3 mg): 38
- Infections and infestations: patients % (3 mg): (7.3) %
- Infections and infestations: patients N (3 mg): 34
- Influenza, Mild: events E (3 mg): 2
- Influenza, Mild: patients % (3 mg): (0.4) %
- Influenza, Mild: patients N (3 mg): 2
- Influenza, Moderate: events E (3 mg): 0
- Influenza, Moderate: patients N (3 mg): 0
- Influenza, Severe: events E (3 mg): 0
- Influenza, Severe: patients N (3 mg): 0
- Influenza: events E (3 mg): 2
- Influenza: patients % (3 mg): (0.4) %
- Influenza: patients N (3 mg): 2
- Injury, poisoning and procedural complications, Mild: events E (3 mg): 6
- Injury, poisoning and procedural complications, Mild: patients % (3 mg): (0.9) %
- Injury, poisoning and procedural complications, Mild: patients N (3 mg): 4
- Ligament sprain, Mild: events E (3 mg): 1
- Ligament sprain, Mild: patients % (3 mg): (0.2) %
- Ligament sprain, Mild: patients N (3 mg): 1
- Ligament sprain, Moderate: events E (3 mg): 1
- Ligament sprain, Moderate: patients % (3 mg): (0.2) %
- Ligament sprain, Moderate: patients N (3 mg): 1
- Ligament sprain, Severe: events E (3 mg): 0
- Ligament sprain, Severe: patients N (3 mg): 0
- Ligament sprain: events E (3 mg): 2
- Ligament sprain: patients % (3 mg): (0.4) %
- Ligament sprain: patients N (3 mg): 2
- Skeletal injury, Mild: events E (3 mg): 0
- Skeletal injury, Mild: patients N (3 mg): 0
- Skeletal injury, Moderate: events E (3 mg): 0
- Skeletal injury, Moderate: patients N (3 mg): 0
- Skeletal injury, Severe: events E (3 mg): 0
- Skeletal injury, Severe: patients N (3 mg): 0
- Skeletal injury: events E (3 mg): 0
- Skeletal injury: patients N (3 mg): 0
- Ileus: events (E) (3 mg (N = 467)): 0
- Infections and infestations (SOC): events E (3 mg (N = 467)): 38
- Infections and infestations (SOC): patients % (3 mg (N = 467)): (7.3) %
- Infections and infestations (SOC): patients N (3 mg (N = 467)): 34
- Influenza like illness, Mild: events (E) (3 mg (N = 467)): 0
- Influenza like illness, Moderate: events (E) (3 mg (N = 467)): 0
- Influenza like illness, Severe: events (E) (3 mg (N = 467)): 0
- Influenza like illness: events (E) (3 mg (N = 467)): 0
- Influenza like illness: events E (3 mg (N = 467)): 0
- Influenza like illness: patients N (3 mg (N = 467)): 0
- Influenza: events E (3 mg (N = 467)): 2
- Influenza: patients % (3 mg (N = 467)): (0.4) %
- Influenza: patients N (3 mg (N = 467)): 2
- Injury, poisoning and procedural complications (SOC): events E (3 mg (N = 467)): 10
- Nausea, Mild: events (E) (3 mg (N = 467)): 4
- Nausea, Mild: patients (%) (3 mg (N = 467)): (0.9) %
- Nausea, Moderate: events (E) (3 mg (N = 467)): 0
- SAE Musculoskeletal and connective tissue disorders, E events (3 mg (N = 467)): 0
- SAE Musculoskeletal and connective tissue disorders, N patients (3 mg (N = 467)): 0
- SAE Musculoskeletal and connective tissue disorders, No Reasonable Possibility, E events (3 mg (N = 467)): 0
- SAE Musculoskeletal and connective tissue disorders, No Reasonable Possibility, N patients (3 mg (N = 467)): 0
- SAE Musculoskeletal and connective tissue disorders, Reasonable Possibility, E events (3 mg (N = 467)): 0
- SAE Musculoskeletal and connective tissue disorders, Reasonable Possibility, N patients (3 mg (N = 467)): 0
- Infections and infestations, Severe: patients N (6 mg): 1
- Infections and infestations: events E (6 mg): 51
- Infections and infestations: patients % (6 mg): (9.2) %
- Infections and infestations: patients N (6 mg): 43
- Influenza, Mild: events E (6 mg): 4
- Influenza, Mild: patients % (6 mg): (0.9) %
- Influenza, Mild: patients N (6 mg): 4
- Influenza, Moderate: events E (6 mg): 3
- Influenza, Moderate: patients % (6 mg): (0.6) %
- Influenza, Moderate: patients N (6 mg): 3
- Influenza, Severe: events E (6 mg): 0
- Influenza, Severe: patients N (6 mg): 0
- Influenza: events E (6 mg): 7
- Influenza: patients % (6 mg): (1.5) %
- Influenza: patients N (6 mg): 7
- Injury, poisoning and procedural complications, Mild: events E (6 mg): 4
- Injury, poisoning and procedural complications, Mild: patients % (6 mg): (0.9) %
- Injury, poisoning and procedural complications, Mild: patients N (6 mg): 4
- Ligament sprain, Mild: events E (6 mg): 0
- Ligament sprain, Mild: patients N (6 mg): 0
- Ligament sprain, Moderate: events E (6 mg): 0
- Ligament sprain, Moderate: patients N (6 mg): 0
- Ligament sprain, Severe: events E (6 mg): 0
- Ligament sprain, Severe: patients N (6 mg): 0
- Ligament sprain: events E (6 mg): 0
- Ligament sprain: patients N (6 mg): 0
- Skeletal injury, Mild: events E (6 mg): 0
- Skeletal injury, Mild: patients N (6 mg): 0
- Skeletal injury, Moderate: events E (6 mg): 0
- Skeletal injury, Moderate: patients N (6 mg): 0
- Skeletal injury, Severe: events E (6 mg): 1
- Skeletal injury, Severe: patients % (6 mg): (0.2) %
- Skeletal injury, Severe: patients N (6 mg): 1
- Skeletal injury: events E (6 mg): 1
- Skeletal injury: patients % (6 mg): (0.2) %
- Skeletal injury: patients N (6 mg): 1
- Ileus: events (E) (6 mg (N = 469)): 0
- Infections and infestations (SOC): events E (6 mg (N = 469)): 51
- Infections and infestations (SOC): patients % (6 mg (N = 469)): (9.2) %
- Infections and infestations (SOC): patients N (6 mg (N = 469)): 43
- Influenza like illness, Mild: events (E) (6 mg (N = 469)): 1
- Influenza like illness, Mild: patients (%) (6 mg (N = 469)): (0.2) %
- Influenza like illness, Moderate: events (E) (6 mg (N = 469)): 0
- Influenza like illness, Severe: events (E) (6 mg (N = 469)): 0
- Influenza like illness: events (E) (6 mg (N = 469)): 1
- Influenza like illness: events E (6 mg (N = 469)): 1
- Influenza like illness: patients % (6 mg (N = 469)): (0.2) %
- Influenza like illness: patients (%) (6 mg (N = 469)): (0.2) %
- Influenza like illness: patients N (6 mg (N = 469)): 1
- Influenza: events E (6 mg (N = 469)): 7
- Influenza: patients % (6 mg (N = 469)): (1.5) %
- Influenza: patients N (6 mg (N = 469)): 7
- Injury, poisoning and procedural complications (SOC): events E (6 mg (N = 469)): 9
- Nausea, Mild: events (E) (6 mg (N = 469)): 3
- Nausea, Mild: patients (%) (6 mg (N = 469)): (0.6) %
- Nausea, Moderate: events (E) (6 mg (N = 469)): 2
- Nausea, Moderate: patients (%) (6 mg (N = 469)): (0.4) %
- SAE Musculoskeletal and connective tissue disorders, E events (6 mg (N = 469)): 0
- SAE Musculoskeletal and connective tissue disorders, N patients (6 mg (N = 469)): 0
- SAE Musculoskeletal and connective tissue disorders, No Reasonable Possibility, E events (6 mg (N = 469)): 0
- SAE Musculoskeletal and connective tissue disorders, No Reasonable Possibility, N patients (6 mg (N = 469)): 0
- SAE Musculoskeletal and connective tissue disorders, Reasonable Possibility, E events (6 mg (N = 469)): 0
- SAE Musculoskeletal and connective tissue disorders, Reasonable Possibility, N patients (6 mg (N = 469)): 0
- Influenza, Mild: events E (Active Combined): 6
- Influenza, Mild: patients % (Active Combined): (0.6) %
- Influenza, Mild: patients N (Active Combined): 6
- Influenza, Moderate: events E (Active Combined): 3
- Influenza, Moderate: patients % (Active Combined): (0.3) %
- Influenza, Moderate: patients N (Active Combined): 3
- Influenza, Severe: events E (Active Combined): 0
- Influenza, Severe: patients N (Active Combined): 0
- Influenza: events E (Active Combined): 9
- Influenza: patients % (Active Combined): (1.0) %
- Influenza: patients N (Active Combined): 9
- Skeletal injury, Mild: events E (Active Combined): 0
- Skeletal injury, Mild: patients N (Active Combined): 0
- Skeletal injury, Moderate: events E (Active Combined): 0
- Skeletal injury, Moderate: patients N (Active Combined): 0
- Skeletal injury, Severe: events E (Active Combined): 1
- Skeletal injury, Severe: patients % (Active Combined): (0.1) %
- Skeletal injury, Severe: patients N (Active Combined): 1
- Skeletal injury: events E (Active Combined): 1
- Skeletal injury: patients % (Active Combined): (0.1) %
- Skeletal injury: patients N (Active Combined): 1
- Infections and infestations (SOC): events E (Active Combined (N = 936)): 89
- Infections and infestations (SOC): patients % (Active Combined (N = 936)): (8.2) %
- Infections and infestations (SOC): patients N (Active Combined (N = 936)): 77
- Influenza like illness, Mild: events (E) (Active Combined (N = 936)): 1
- Influenza like illness, Mild: patients (%) (Active Combined (N = 936)): (0.1) %
- Influenza like illness, Moderate: events (E) (Active Combined (N = 936)): 0
- Influenza like illness, Severe: events (E) (Active Combined (N = 936)): 0
- Influenza like illness: events (E) (Active Combined (N = 936)): 1
